The text below walks through data of article PMC3673817.

The experiment concerns the target FLAG-tagged full length EEA1 (Early endosomal autoantigen 1) (human) (UniProt Q15075). As to the kind of experiment: SPR; EEA1-FLAG amine-coupled to a CM5 chip (~2,000 RU), Biacore 2000, 25°C; E2 injected at 2.5 to 160 μM, 20 μL/min, in 10 mM Hepes pH 7.4, 150 mM NaCl, 3 mM EDTA, 0.005% surfactant P20; response plotted against the E2 concentration.

For orientation: Kd means the equilibrium constant for the complex coming apart.

Chain of UniProt Q15075 (Q15075 whole entry): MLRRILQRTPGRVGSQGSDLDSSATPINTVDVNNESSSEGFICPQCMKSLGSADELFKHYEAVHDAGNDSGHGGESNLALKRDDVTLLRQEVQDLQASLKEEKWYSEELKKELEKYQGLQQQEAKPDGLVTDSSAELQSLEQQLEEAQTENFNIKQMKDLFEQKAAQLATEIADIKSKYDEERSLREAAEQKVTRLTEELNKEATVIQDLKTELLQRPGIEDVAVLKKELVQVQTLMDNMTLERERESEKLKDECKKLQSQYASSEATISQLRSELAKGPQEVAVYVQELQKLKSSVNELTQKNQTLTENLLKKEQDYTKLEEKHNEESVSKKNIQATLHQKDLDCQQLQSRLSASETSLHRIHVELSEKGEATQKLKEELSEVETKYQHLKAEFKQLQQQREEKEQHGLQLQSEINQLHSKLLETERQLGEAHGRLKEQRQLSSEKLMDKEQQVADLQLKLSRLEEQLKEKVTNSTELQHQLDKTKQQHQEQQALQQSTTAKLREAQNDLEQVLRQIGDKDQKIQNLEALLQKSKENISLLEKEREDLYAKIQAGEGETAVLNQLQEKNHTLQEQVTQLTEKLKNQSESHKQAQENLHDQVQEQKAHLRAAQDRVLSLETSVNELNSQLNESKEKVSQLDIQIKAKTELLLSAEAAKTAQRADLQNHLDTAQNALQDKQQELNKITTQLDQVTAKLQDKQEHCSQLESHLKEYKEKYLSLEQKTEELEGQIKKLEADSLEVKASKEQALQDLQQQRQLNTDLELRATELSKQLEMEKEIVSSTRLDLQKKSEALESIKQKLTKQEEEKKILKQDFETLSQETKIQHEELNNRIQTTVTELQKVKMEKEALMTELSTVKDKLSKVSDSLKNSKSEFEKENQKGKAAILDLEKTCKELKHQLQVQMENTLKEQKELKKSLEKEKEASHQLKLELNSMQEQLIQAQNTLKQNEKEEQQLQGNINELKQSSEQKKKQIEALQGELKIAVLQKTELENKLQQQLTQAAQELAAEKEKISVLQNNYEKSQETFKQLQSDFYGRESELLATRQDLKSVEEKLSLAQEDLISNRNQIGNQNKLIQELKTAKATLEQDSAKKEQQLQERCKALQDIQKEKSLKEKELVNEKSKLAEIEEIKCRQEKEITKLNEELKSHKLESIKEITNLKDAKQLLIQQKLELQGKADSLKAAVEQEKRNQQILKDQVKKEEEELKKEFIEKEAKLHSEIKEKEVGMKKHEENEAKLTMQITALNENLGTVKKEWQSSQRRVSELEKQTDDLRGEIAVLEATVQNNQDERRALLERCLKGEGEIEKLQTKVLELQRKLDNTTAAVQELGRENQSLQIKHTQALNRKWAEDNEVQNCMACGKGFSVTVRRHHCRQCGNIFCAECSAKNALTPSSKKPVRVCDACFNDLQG

Turning to “Ube2A (HR6a) (from UniProt P49459 1-152) (enzyme; other documents disagree on this pair)”, the Kd turned out to be 9.7 µM.
